Measurements from publication PMC13185157.

Molecular target: GFP-LNX1
Test: flow cytometry on cells; α-GFP-Nb yeast incubated with lysates of HEK293 cells expressing FLAG-tagged partner plus GFP-LNX1 or GFP; washed once; anti-FLAG antibody; percent of positive cells

FLAG-NUMB, sequence (Q9QZS3 whole entry): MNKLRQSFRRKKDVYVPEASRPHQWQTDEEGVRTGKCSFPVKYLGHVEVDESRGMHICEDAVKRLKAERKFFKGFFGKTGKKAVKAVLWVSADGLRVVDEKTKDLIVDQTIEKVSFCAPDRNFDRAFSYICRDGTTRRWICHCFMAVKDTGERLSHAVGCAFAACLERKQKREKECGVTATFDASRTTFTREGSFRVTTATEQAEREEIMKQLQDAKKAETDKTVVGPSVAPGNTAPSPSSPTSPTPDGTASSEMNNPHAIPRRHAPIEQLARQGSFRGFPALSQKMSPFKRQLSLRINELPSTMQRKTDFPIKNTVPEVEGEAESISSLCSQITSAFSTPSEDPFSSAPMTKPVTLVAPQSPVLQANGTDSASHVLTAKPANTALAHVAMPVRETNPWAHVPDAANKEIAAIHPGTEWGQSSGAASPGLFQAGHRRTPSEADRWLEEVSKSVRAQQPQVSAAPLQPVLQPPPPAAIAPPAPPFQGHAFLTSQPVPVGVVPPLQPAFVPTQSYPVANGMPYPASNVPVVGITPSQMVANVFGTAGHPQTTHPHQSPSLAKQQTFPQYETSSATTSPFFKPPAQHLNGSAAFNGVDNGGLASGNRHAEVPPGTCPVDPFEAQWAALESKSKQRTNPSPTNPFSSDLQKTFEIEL
FLAG-ZNF24, sequence (P17028 whole entry): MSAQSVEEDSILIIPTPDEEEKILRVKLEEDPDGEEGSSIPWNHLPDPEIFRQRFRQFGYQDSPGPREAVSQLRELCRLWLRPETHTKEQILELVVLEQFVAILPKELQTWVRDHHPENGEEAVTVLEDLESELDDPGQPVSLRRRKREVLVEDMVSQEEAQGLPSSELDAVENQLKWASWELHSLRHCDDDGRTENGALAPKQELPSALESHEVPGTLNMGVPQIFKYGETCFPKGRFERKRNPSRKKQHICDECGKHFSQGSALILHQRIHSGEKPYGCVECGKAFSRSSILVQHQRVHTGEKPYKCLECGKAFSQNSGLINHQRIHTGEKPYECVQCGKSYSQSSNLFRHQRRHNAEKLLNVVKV
FLAG-Liprin-α1, sequence (Q13136 whole entry): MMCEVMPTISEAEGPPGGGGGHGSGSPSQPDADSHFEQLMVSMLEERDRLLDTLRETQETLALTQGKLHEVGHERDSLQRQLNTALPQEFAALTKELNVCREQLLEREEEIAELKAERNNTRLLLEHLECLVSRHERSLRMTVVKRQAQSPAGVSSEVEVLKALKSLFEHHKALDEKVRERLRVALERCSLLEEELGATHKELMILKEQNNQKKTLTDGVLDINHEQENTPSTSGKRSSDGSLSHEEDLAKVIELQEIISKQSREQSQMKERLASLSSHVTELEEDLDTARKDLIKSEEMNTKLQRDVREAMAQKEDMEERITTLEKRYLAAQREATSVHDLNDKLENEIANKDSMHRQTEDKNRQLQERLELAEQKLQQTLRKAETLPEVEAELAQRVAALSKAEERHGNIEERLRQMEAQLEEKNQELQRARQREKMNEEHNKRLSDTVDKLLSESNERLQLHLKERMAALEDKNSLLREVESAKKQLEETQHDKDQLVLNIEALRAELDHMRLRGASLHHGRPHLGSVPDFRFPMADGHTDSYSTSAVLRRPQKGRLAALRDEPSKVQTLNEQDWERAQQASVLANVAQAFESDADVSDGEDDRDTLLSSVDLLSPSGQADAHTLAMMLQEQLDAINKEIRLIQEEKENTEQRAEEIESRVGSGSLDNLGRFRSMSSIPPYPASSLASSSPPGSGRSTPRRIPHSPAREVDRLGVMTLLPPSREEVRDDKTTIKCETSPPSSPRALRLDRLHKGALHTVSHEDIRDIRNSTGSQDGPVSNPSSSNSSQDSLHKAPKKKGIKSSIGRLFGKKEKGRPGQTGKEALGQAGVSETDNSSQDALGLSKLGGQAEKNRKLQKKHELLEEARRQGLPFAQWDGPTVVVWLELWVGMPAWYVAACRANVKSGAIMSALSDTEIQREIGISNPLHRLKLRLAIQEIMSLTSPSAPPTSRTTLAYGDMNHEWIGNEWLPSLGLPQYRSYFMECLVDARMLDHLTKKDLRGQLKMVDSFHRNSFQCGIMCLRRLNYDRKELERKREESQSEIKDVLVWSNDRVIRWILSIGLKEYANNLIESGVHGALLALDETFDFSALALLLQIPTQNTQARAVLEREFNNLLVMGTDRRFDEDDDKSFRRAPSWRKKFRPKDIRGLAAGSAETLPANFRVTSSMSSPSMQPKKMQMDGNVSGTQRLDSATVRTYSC

percent of cells positively labelled with anti-FLAG antibody [%]	percent of FLAG positive cells [%]	Substance
10	–	FLAG-NUMB (from UniProt Q9QZS3 1-653) (natural protein)
–	77	FLAG-ZNF24 (from UniProt P17028 1-368) (natural protein)
30	–	FLAG-Liprin-α1 (from UniProt Q13136 1-1202) (natural protein)
